Publication PMC12186490, “Environmental pH controls antimicrobial production by human probiotic Streptococcus salivarius” (Journal of Bacteriology, 2025)

Columns and labels:
[1] = biological target: NRPS regulator NrpR (amino acids 1-285), recombinant, untagged (Streptococcus salivarius K12)
[2] = biological target: NRPS regulator NrpR (amino acids 1-285), recombinant, untagged (Streptococcus salivarius K12); experiment: SEC; Superdex 200 10/300 GL; 20 mM Tris-HCl pH 8.5, 200 mM NaCl, 1 mM TCEP, 5% glycerol; 1 mg/mL NrpR, room temperature; mass standards
[3] = biological target: fluorescein-labeled synthetic NRPS-inducing peptide (NIP) (Streptococcus salivarius K12); experiment: fluorescence polarisation; 1 nM fluorescein-labeled NIP titrated with purified NrpR; 20 mM potassium phosphate, 75 mM NaCl, 2% DMSO, 1 mM EDTA, 0.0005% Tween 20; binding buffer adjusted to near neutral pH (pH 6.5 to 7.5) or pH 5.0

sarD transcript level (qRT-PCR) in the nip* mutant with 100 nM synthetic NIP at pH 5.5 or 6.0, against the unsupplemented mutant; no significant induction at pH 6.5-7.5 or pH 5.0 [1] | stoichiometry N [2] | fold decrease in affinity against pH 5.5 [3] | Substance
> 75 fold |  |  | fluorescein-labeled synthetic NRPS-inducing peptide (NIP)
 | 2 | > 2 fold | NRPS regulator NrpR (amino acids 1-285), recombinant, untagged (receptor)
